{"source": "paper PMC10331576", "about": "(2023)", "binders": {"B1": {"name": "DC-SIGN.Fc (Fc fusion)", "chain": "QVSKVPSSISQEQSRQDAIYQNLTQLKAAVGELSEKSKLQEIYQELTQLKAAVGELPEKSKLQEIYQELTRLKAAVGELPEKSKLQEIYQELTWLKAAVGELPEKSKMQEIYQELTRLKAAVGELPEKSKQQEIYQELTRLKAAVGELPEKSKQQEIYQELTRLKAAVGELPEKSKQQEIYQELTQLKAAVERLCHPCPWEWTFFQGNCYFMSNSQRNWHDSITACKEVGAQLVVIKSAEEQNFLQLQSSRSNRFTWMGLSDLNQEGTWQWVDGSPLLPSFKQYWNRGEPNNVGEEDCAEFSGNGWNDDKCNLAKFWICKKSAASCSRDEEQFLSPAPATPNPPPA"}}, "molecular_target": "COVID-2019-Spike-328-585 (RBD) (SARS-CoV-2, UniProt P0DTC2 328-585)", "test": "BLI", "data": [{"binder": "B1", "values": [{"measurement": "koff", "result": 0.000614, "unit": "s⁻¹"}]}]}
